Measured values taken from the supplement of paper PMC10567573.

B1: FCHO1 (parent)
chain: HLELTRKLQDLIKDVLRYGEEQLK
B2: STK38L (parent)
chain: RQLAYSTVGTPDYIAPEVFMQTGY

Variants of: B1
Test: protein stability index of a GFP-peptide fusion (GPS, HEK-293T) (PSI 1-6); higher = more stable
Conditions: c terminus: a fixed tail appended
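Note: lentivirally expressed fusions sorted by FACS into six bins by GFP to DsRed ratio, PSI derived from sequencing read proportions per bin multiplied by bin number.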

Row | Variant | protein stability index
1 | L11I | 3.17
2 | L11R | 1.2
3 | L11T | 1.63
4 | L11P | 4.34
5 | L11S | 2.67
6 | L11A | 2.5
7 | L11D | 4.29
8 | L11H | 2.51
9 | L11Y | 1.09
10 | L11N | 2.56
11 | L11C | 1.67
12 | L11K | 2.38
13 | L11E | 4.22
14 | L11Q | 2.47
15 | L11F | 3.54
16 | L11G | 2.38
17 | L11M | 3.68
18 | E20D | 3.65
19 | E20A | 2.69
20 | E20M | 2.81
21 | E20K | 1.7
22 | E20S | 3.54
23 | E20H | 2.58
24 | E20C | 2.57
25 | E20T | 1.74

Row | Variant | protein stability index
26 | E20Y | 2.65
27 | E20W | 3.32
28 | E20P | 2.51
29 | E20V | 3.74
30 | E20G | 2.66
31 | E20I | 3.44
32 | D10K | 2.72
33 | D10I | 3.93
34 | D10A | 3.54
35 | D10E | 3.03
36 | D10G | 3.66
37 | D10V | 4.56
38 | D10R | 2.58
39 | D10L | 1.44
40 | D10Y | 4.45
41 | D10P | 1.99
42 | D10W | 2.82
43 | D10C | 3.93
44 | D10N | 2.62
45 | V15M | 3.23
46 | V15D | 4.22
47 | V15W | 3.69
48 | V15K | 1.87
49 | V15N | 2.98
50 | V15P | 2.27

Row | Variant | protein stability index
51 | V15G | 2.15
52 | V15E | 3.18
53 | V15A | 2.98
54 | V15R | 2.74
55 | V15Q | 2.49
56 | V15I | 2.96
57 | V15S | 1.88
58 | V15H | 1.83
59 | V15F | 2.12
60 | L23S | 2.31
61 | L23D | 2.53
62 | L23G | 2.57
63 | L23A | 2.36
64 | L23K | 2
65 | L23E | 2.24
66 | L23Y | 2.29
67 | L23C | 1.09
68 | L23Q | 2.06
69 | L23F | 3.59
70 | L23I | 3.49
71 | L23T | 3.42
72 | L23R | 2.44
73 | L23P | 1.73
74 | L23H | 2.15
75 | L23N | 2.61

Row | Variant | protein stability index
76 | D14R | 3.44
77 | D14S | 3.79
78 | D14C | 3.08
79 | D14N | 2.76
80 | D14Y | 2.66
81 | D14L | 1.99
82 | D14G | 1.68
83 | D14I | 2.7
84 | D14E | 2.9
85 | D14H | 3.31
86 | D14K | 4.59
87 | D14P | 2.97
88 | D14A | 2.45
89 | D14Q | 4.72
90 | D14V | 3.29
91 | D14F | 1.77
92 | D14M | 1.3
93 | K24L | 2.8
94 | K24I | 2.67
95 | K24H | 3.16
96 | K24F | 2.05
97 | K24S | 2.66
98 | K24G | 1.01
99 | K24D | 1.84
100 | K24T | 1.6

Row | Variant | protein stability index
101 | K24P | 2.02
102 | K24E | 1.44
103 | K24A | 1.59
104 | K24V | 4.54
105 | K24Q | 2.48
106 | K24N | 3.69
107 | K24M | 2.79
108 | K24C | 1.63
109 | K24Y | 2.8
110 | L8R | 3.39
111 | L8M | 1.45
112 | L8E | 3.62
113 | L8I | 4.57
114 | L8S | 3.28
115 | L8H | 2.71
116 | L8T | 2.39
117 | L8F | 2.29
118 | L8N | 3.85
119 | L8W | 1.36
120 | L8P | 2.71
121 | L8Y | 1.64
122 | L8V | 1.97
123 | L8Q | 3.3
124 | L8G | 2.46
125 | L8C | 3.07

Row | Variant | protein stability index
126 | L8A | 1.94
127 | L8D | 4.04
128 | L8K | 2.74
129 | G19I | 2.01
130 | G19Q | 1.59
131 | G19K | 1.59
132 | G19S | 1.52
133 | G19V | 2.02
134 | G19W | 3.49
135 | G19E | 1.88
136 | G19H | 2.29
137 | G19T | 3.25
138 | G19R | 2.53
139 | G19N | 2.18
140 | G19C | 1.4
141 | G19F | 2.83
142 | G19A | 2.5
143 | G19P | 1.78
144 | G19M | 1.97
145 | G19Y | 1.75
146 | G19L | 2.03
147 | G19D | 2.09
148 | K13P | 2.63
149 | K13F | 1.59
150 | K13L | 4.09

Row | Variant | protein stability index
151 | K13A | 2.14
152 | K13Y | 1.33
153 | K13V | 2.29
154 | K13R | 2.3
155 | K13T | 1.67
156 | K13D | 2.06
157 | K13N | 1.9
158 | K13E | 2.37
159 | K13G | 1.78
160 | K13C | 2.28
161 | K13I | 4.84
162 | K13W | 2.16
163 | K13H | 1.8
164 | K13M | 2.22
165 | K13S | 2
166 | K13Q | 1.59
167 | K7D | 2.27
168 | K7A | 2.33
169 | K7E | 2.28
170 | K7N | 2.03
171 | K7R | 2.78
172 | K7P | 1.51
173 | K7H | 1.99
174 | K7W | 1.87
175 | K7G | 2.68

Row | Variant | protein stability index
176 | K7T | 2.96
177 | K7S | 2.75
178 | K7C | 1.55
179 | K7V | 1.74
180 | K7F | 2.12
181 | K7M | 3.46
182 | K7Y | 1.78
183 | K7L | 3.41
184 | K7Q | 2.28
185 | K7I | 2.06
186 | E21R | 2.43
187 | E21M | 3.24
188 | E21N | 3.29
189 | E21T | 2.8
190 | E21Y | 3.04
191 | E21I | 3.67
192 | E21W | 1.81
193 | E21H | 2.76
194 | E21D | 1.81
195 | R17E | 1.76
196 | R17H | 3.28
197 | R17N | 2.64
198 | R17V | 2.61
199 | R17F | 3.06
200 | R17P | 2.95

Row | Variant | protein stability index
201 | R17Y | 2.08
202 | R17I | 1.54
203 | R17A | 1.97
204 | R17D | 1.73
205 | R17T | 1.54
206 | R17S | 1.46
207 | R17G | 1.58
208 | R17Q | 2.26
209 | R17C | 1.83
210 | R17M | 1.98
211 | R17L | 2.88
212 | Y18K | 3.41
213 | Y18V | 3.06
214 | Y18H | 2.12
215 | Y18D | 2.63
216 | Y18E | 1.77
217 | Y18G | 1.83
218 | Y18L | 2.53
219 | Y18Q | 3.96
220 | Y18M | 2.65
221 | Y18F | 2.25
222 | Y18S | 1.82
223 | Y18R | 2.27
224 | Y18A | 2.74
225 | Y18C | 1.61

Row | Variant | protein stability index
226 | Y18P | 2.42
227 | Y18T | 1.88
228 | Y18N | 1.84
229 | Q9F | 2.25
230 | Q9V | 2.56
231 | Q9W | 2.68
232 | Q9Y | 3.31
233 | Q9I | 1.22
234 | Q9H | 1.65
235 | Q9G | 1.31
236 | Q9P | 2.81
237 | Q9K | 3.73
238 | Q9D | 1.24
239 | Q9M | 3.55
240 | Q9A | 2.81
241 | Q9L | 2.26
242 | Q22R | 3.19
243 | Q22E | 2.37
244 | Q22P | 1.79
245 | Q22V | 2.32
246 | Q22H | 2.41
247 | Q22D | 2.43
248 | Q22G | 2.62
249 | Q22C | 1.59
250 | Q22I | 2.21

Row | Variant | protein stability index
251 | Q22F | 2.07
252 | Q22L | 2.14
253 | Q22A | 1.68
254 | Q22Y | 3.18
255 | Q22M | 1.91
256 | Q22S | 1.84
257 | L16I | 2.39
258 | L16V | 4.13
259 | L16K | 1.44
260 | L16Q | 2.54
261 | L16S | 2.09
262 | L16H | 2.73
263 | L16A | 1.04
264 | L16R | 1.69
265 | L16N | 2.82
266 | L16G | 2.61
267 | L16C | 2.91
268 | L16F | 2.77
269 | L16W | 3.05
270 | L16M | 2.69
271 | L16D | 3.32
272 | L16Y | 1.93
273 | L16P | 2.9
274 | L16T | 2.25
275 | L16E | 3.18

Row | Variant | protein stability index
276 | I12D | 4.11
277 | I12G | 2.88
278 | I12Y | 2.34
279 | I12P | 3.65
280 | I12M | 2.25
281 | I12N | 4.18
282 | I12T | 2.31
283 | I12R | 3.39
284 | I12L | 1.77
285 | I12H | 3.05
286 | I12W | 1.89
287 | I12E | 3.82
288 | I12A | 2.27
289 | I12C | 1.73
290 | I12Q | 3.4
291 | I12S | 2.51
292 | I12K | 3.17
293 | I12F | 2.57
294 | R6V | 1.69
295 | R6I | 1.95
296 | R6E | 1.85
297 | R6P | 1.79
298 | R6K | 2.69
299 | R6W | 2.34
300 | R6Q | 1.86

Row | Variant | protein stability index
301 | R6T | 1.92
302 | R6M | 1.46
303 | R6A | 1.45
304 | R6S | 2.4
305 | R6F | 1.9
306 | R6G | 2.11
307 | R6D | 1.84
308 | R6L | 1.29
309 | R6H | 3.21
310 | R6C | 2.25
311 | R6Y | 1.9
312 | R6N | 1.61
313 | T5S | 3.79
314 | T5Q | 3.54
315 | T5W | 2.05
316 | T5Y | 3.13
317 | T5V | 2.63

Variants of: B2
Test: as above
Conditions: c terminus: a fixed tail appended

Row | Variant | protein stability index
318 | Q2P | 2.5
319 | Q21A | 2.88
320 | E17K | 2.08
321 | F19Y | 2.61
322 | Y13Q | 3.01
323 | T22S | 2.77
324 | R1W | 2.84
325 | R1A | 2.38
326 | T10M | 2.61
327 | M20L | 2.89
328 | G9C | 1.97
329 | P11T | 2.44
330 | G23L | 2.28
331 | G23S | 2.5
332 | G23K | 2.59
333 | G23N | 2.57
334 | I14V | 2.54
